Measurements as given in patent publication US20200277374A1 (Alector, published 2020).

Assays:
[1] = molecular target: T1, R124A (human, UniProt Q9Y286); test: flow cytometry on HEK-293T cells expressing the mutant; mean % of wild-type signal (range of duplicates)
T1 construct: clone of the siglec-7 mutation library; also called Siglec-7 R124A
Method: (§1) Shotgun mutagenesis epitope mapping of anti-siglec-7 antibodies was performed using an alanine-scanning library for the siglec-7 protein. […] Each of residues 19 to 353 was mutated, representing the siglec-7 extracellular domain, most to alanine, while alanine codons were mutated to serine. In total, 335 siglec-7 mutant expression constructs were generated, sequences confirmed, and arrayed into a 384-well plate, one mutant per well.
(§2) Cells were then incubated with MAbs diluted in 10% o normal goat serum (NGS) (Sigma-Aldrich, St. Louis, Mo.). Prior to library screening, primary MAb concentrations were determined using an independent immunofluorescence titration curve against cells expressing wild-type siglec-7 to ensure that signals were within the linear range of detection. MAbs were detected using 3.75 μg/ml AlexaFluor488-conjugated secondary antibody (Jackson immunoResearch Laboratories, Westgrove, Pa.) in 10% NGS. Cells were washed twice with PBS−/− and resuspended in Cellstripper (Cellgro, Manassas, Va.) with 0.1% BSA (Sigma-Aldrich, St. Louis, Mo.). Mean cellular fluorescence was detected using the Intellicyt high throughput flow cytometer (HTFC, Intellicyt, Albuquerque, N. Mex.). MAb reactivities against each mutant clone were calculated relative to wild-type siglec-7 protein reactivity by subtracting the signal from mock-transfected controls, and normalizing to the signal from wild-type siglec-7-transfected controls.

[2] = molecular target: T2, T103A (human, UniProt Q9Y286); test: as above
T2 construct: clone of the siglec-7 mutation library; also called Siglec-7 T103A
T2 sequence (Q9Y286 19-467 T103A limits assumed): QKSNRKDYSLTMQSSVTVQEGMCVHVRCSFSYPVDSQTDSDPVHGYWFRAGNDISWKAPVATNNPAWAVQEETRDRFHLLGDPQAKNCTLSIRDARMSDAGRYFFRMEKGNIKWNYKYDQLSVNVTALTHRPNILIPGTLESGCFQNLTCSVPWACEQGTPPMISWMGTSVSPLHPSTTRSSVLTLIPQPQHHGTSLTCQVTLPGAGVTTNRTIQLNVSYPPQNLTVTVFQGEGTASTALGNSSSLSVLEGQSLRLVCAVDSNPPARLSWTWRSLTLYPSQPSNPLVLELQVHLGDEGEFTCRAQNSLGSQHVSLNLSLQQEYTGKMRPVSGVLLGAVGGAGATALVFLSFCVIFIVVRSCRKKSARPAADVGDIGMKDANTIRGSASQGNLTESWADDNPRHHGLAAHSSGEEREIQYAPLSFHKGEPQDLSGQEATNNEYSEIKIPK
Method: as §1, §2

[3] = molecular target: T3, T107A (human, UniProt Q9Y286); test: as above
T3 construct: clone of the siglec-7 mutation library; also called Siglec-7 T107A
T3 sequence (Q9Y286 19-467 T107A limits assumed): as the sequence (Q9Y286 19-467 T103A limits assumed) above, with A85T, T89A counted along it
Method: as §1, §2

[4] = molecular target: T4, N81A (human, UniProt Q9Y286); test: as above
T4 construct: clone of the siglec-7 mutation library; also called Siglec-7 N81A
T4 sequence (Q9Y286 19-467 N81A limits assumed): as the sequence (Q9Y286 19-467 T103A limits assumed) above, with N63A, A85T counted along it
Method: as §1, §2

[5] = molecular target: T5, Y50A (human, UniProt Q9Y286); test: as above
T5 construct: clone of the siglec-7 mutation library; also called Siglec-7 Y50A
T5 sequence (Q9Y286 19-467 Y50A limits assumed): as the sequence (Q9Y286 19-467 T103A limits assumed) above, with Y32A, A85T counted along it
Method: as §1, §2

[6] = molecular target: T6, F48A (human, UniProt Q9Y286); test: as above
T6 construct: clone of the siglec-7 mutation library; also called Siglec-7 F48A
T6 sequence (Q9Y286 19-467 F48A limits assumed): as the sequence (Q9Y286 19-467 T103A limits assumed) above, with F30A, A85T counted along it
Method: as §1, §2

[7] = molecular target: T7, S47A (human, UniProt Q9Y286); test: as above
T7 construct: clone of the siglec-7 mutation library; also called Siglec-7 S47A
T7 sequence (Q9Y286 19-467 S47A limits assumed): as the sequence (Q9Y286 19-467 T103A limits assumed) above, with S29A, A85T counted along it
Method: as §1, §2

[8] = molecular target: T8, K104A (human, UniProt Q9Y286); test: as above
T8 construct: clone of the siglec-7 mutation library; also called Siglec-7 K104A
T8 sequence (Q9Y286 19-467 K104A limits assumed): as the sequence (Q9Y286 19-467 T103A limits assumed) above, with A85T, K86A counted along it
Method: as §1, §2

[9] = molecular target: T9, R45A (human, UniProt Q9Y286); test: as above
T9 construct: clone of the siglec-7 mutation library; also called Siglec-7 R45A
T9 sequence (Q9Y286 19-467 R45A limits assumed): as the sequence (Q9Y286 19-467 T103A limits assumed) above, with R27A, A85T counted along it
Method: as §1, §2

[10] = molecular target: T10, M30A (human, UniProt Q9Y286); test: as above
T10 construct: clone of the siglec-7 mutation library; also called Siglec-7 M30A
T10 sequence (Q9Y286 19-467 M30A limits assumed): as the sequence (Q9Y286 19-467 T103A limits assumed) above, with M12A, A85T counted along it
Method: as §1, §2

[11] = molecular target: T11, W74A (human, UniProt Q9Y286); test: as above
T11 construct: clone of the siglec-7 mutation library; also called Siglec-7 W74A
T11 sequence (Q9Y286 19-467 W74A limits assumed): as the sequence (Q9Y286 19-467 T103A limits assumed) above, with W56A, A85T counted along it
Method: as §1, §2

[12] = molecular target: T12, I72A (human, UniProt Q9Y286); test: as above
T12 construct: clone of the siglec-7 mutation library; also called Siglec-7 I72A
T12 sequence (Q9Y286 19-467 I72A limits assumed): as the sequence (Q9Y286 19-467 T103A limits assumed) above, with I54A, A85T counted along it
Method: as §1, §2

[13] = molecular target: T13, M185A (human, UniProt Q9Y286); test: as above
T13 construct: clone of the siglec-7 mutation library; also called Siglec-7 M185A
T13 sequence (Q9Y286 19-467 M185A limits assumed): as the sequence (Q9Y286 19-467 T103A limits assumed) above, with A85T, M167A counted along it
Method: as §1, §2

[14] = molecular target: T14, V44A (human, UniProt Q9Y286); test: as above
T14 construct: clone of the siglec-7 mutation library; also called Siglec-7 V44A
T14 sequence (Q9Y286 19-467 V44A limits assumed): as the sequence (Q9Y286 19-467 T103A limits assumed) above, with V26A, A85T counted along it
Method: as §1, §2

[15] = molecular target: human Siglec-7 expressed on human cells (primary monocytes, dendritic cells, macrophages, NK cells, microglia, U937 cells, human cells of humanized mice) (human) (UniProt Q9Y286); test: FACS, human primary dendritic cells, 10 ug/ml mAb
human Siglec-7 expressed on human cells (primary monocytes, dendritic cells, macrophages, NK cells, microglia, U937 cells, human cells of humanized mice) (human), sequence (Q9Y286 19-467): as the sequence (Q9Y286 19-467 T103A limits assumed) above, with A85T counted along it

[16] = molecular target: human Siglec-7 expressed on human cells (primary monocytes, dendritic cells, macrophages, NK cells, microglia, U937 cells, human cells of humanized mice) (human) (UniProt Q9Y286); test: FACS, human primary monocytes, 10 ug/ml mAb
[17] = molecular target: human Siglec-7 expressed on human cells (primary monocytes, dendritic cells, macrophages, NK cells, microglia, U937 cells, human cells of humanized mice) (human) (UniProt Q9Y286); test: FACS, human primary macrophages, 10 ug/ml mAb
[18] = molecular target: human Siglec-7 expressed on human cells (primary monocytes, dendritic cells, macrophages, NK cells, microglia, U937 cells, human cells of humanized mice) (human) (UniProt Q9Y286); test: cell-based or functional assay
[19] = molecular target: T15, Siglec-7-Fc (plate immobilized) (human, UniProt Q9Y286 19-357, limits assumed); test: RBC solid adhesion assay, plate-coated Siglec-7-Fc, antibody 0.5 or 1.0 ug/ml; % of RBC binding without antibody
T15 construct: also called Siglec-7-Fc protein; immobilized Siglec-7; not shown: Fc part
T15 sequence (Q9Y286 19-357 limits assumed): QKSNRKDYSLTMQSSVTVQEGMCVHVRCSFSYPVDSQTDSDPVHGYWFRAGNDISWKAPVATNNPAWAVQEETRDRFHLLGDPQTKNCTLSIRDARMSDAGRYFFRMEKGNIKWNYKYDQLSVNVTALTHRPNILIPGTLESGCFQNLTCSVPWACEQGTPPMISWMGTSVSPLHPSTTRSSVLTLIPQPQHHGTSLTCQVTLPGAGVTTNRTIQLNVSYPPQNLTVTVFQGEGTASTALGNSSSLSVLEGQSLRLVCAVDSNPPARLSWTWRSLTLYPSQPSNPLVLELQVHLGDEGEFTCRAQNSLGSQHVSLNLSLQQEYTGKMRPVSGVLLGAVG
Method: To determine which antibodies compete with ligand binding to Siglec-7, a red blood cell (RBC) solid adhesion assay was carried out in accordance with standard protocols (Kelm et al., Current Biology, 1994). Red blood cells are highly decorated with glycoproteins containing sialic acids: therefore, the ability of an antibody to block RBC binding to immobilized Siglec-7 can be used to determine ligand interference. Briefly, 5 μg/ml Siglec-7-Fc was coated overnight at RT in 96 well Immunolon plates, then washed with PBS, blocked for one hour with binding buffer (PBS containing %0.25 BSA 1 mM CaCl₂), Siglec-7 antibodies (0.5 μg/ml or 1.0 μg/ml) were bound for one hour at RT with gentle rocking. After removal of unbound antibody, red blood cells were added to each well at a concentration of 3.0×10⁶ cells per ml and incubated at RT for one hour. Unbound RBCs were then carefully washed off 3× with PBS, and water was added to each well for hypotonic lysis of bound RBCs. The plate was transferred to −80° C. for 10 minutes, followed by 37° C. for 15 minutes. Bound RBCs were detected by peroxidase activity, followed by 2N sulfuric acid to stop the reaction. Signal was detected at […]. Data was calculated as a percent of RBC binding to plate bound Siglec-7-Fc in the absence of antibody.

[20] = molecular target: human Siglec-7 expressed on human cells (primary monocytes, dendritic cells, macrophages, NK cells, microglia, U937 cells, human cells of humanized mice) (human) (UniProt Q9Y286); test: FACS, human primary dendritic cells; isotype control (background)
[21] = molecular target: human Siglec-7 expressed on human cells (primary monocytes, dendritic cells, macrophages, NK cells, microglia, U937 cells, human cells of humanized mice) (human) (UniProt Q9Y286); test: FACS, human primary macrophages; isotype control (background)
[22] = molecular target: T15, Siglec-7-Fc (plate immobilized); test: RBC solid adhesion assay, plate-coated Siglec-7-Fc; isotype control
[23] = molecular target: human Siglec-7 expressed on human cells (primary monocytes, dendritic cells, macrophages, NK cells, microglia, U937 cells, human cells of humanized mice) (human) (UniProt Q9Y286); test: FACS, human primary monocytes; isotype control (background)

T1 sequence (Q9Y286 19-467 R124A limits assumed): as the sequence (Q9Y286 19-467 T103A limits assumed) above, with A85T, R106A counted along it

6-434 MAb (antibody)
Binding Reactivity (% WT) [1]: 126 % WT | Binding Reactivity (% WT) [2]: 77.5 % WT | Binding Reactivity (% WT) [3]: 66.8 % WT | Binding Reactivity (% WT) [4]: 112 % WT | Binding Reactivity (% WT) [5]: 97.9 % WT | Binding Reactivity (% WT) [6]: 113 % WT | Binding Reactivity (% WT) [7]: 101 % WT | Binding Reactivity (% WT) [8]: 83.8 % WT | Binding Reactivity (% WT) [9]: 112 % WT | Binding Reactivity (% WT) [10]: 84.8 % WT | Binding Reactivity (% WT) [11]: 74.9 % WT | Binding Reactivity (% WT) [12]: 64.2 % WT | Binding Reactivity (% WT) [13]: 69.3 % WT | Binding Reactivity (% WT) [14]: 68 % WT

commercially available anti-Siglec-7 antibody Mab1138 (R&D Systems; Cat. No. MAB 1138)
% Positive [15]: 73.9% | MFI [15]: 1450 | % Positive [16]: 19.9% | MFI [16]: 175 | % Positive [17]: 98.6% | MFI [17]: 4220 | Percent Siglec-7 Surface Expression, DCs [18]: 96.7% | Percent Siglec-7 Surface Expression, Macrophages [18]: 98.7% | Percent Siglec-7 Surface Expression, Microglia [18]: 80.2% | Percent Siglec-7 Surface Expression, Monocytes [18]: 99.6% | Percent Siglec-7 Surface Expression, NK cells [18]: 103% | Percent Siglec-7 Surface Expression, U937 cells [18]: 98.2% | Percent RBC Binding to Siglec-7 [19]: 97.1%

mIgG2b isotype control antibody
% Positive [20]: 5% | MFI [20]: 130 | % Positive [21]: 79.5% | MFI [21]: 2060 | Percent RBC Binding to Siglec-7 [22]: 102% | % Positive [23]: 13.9% | MFI [23]: 128 | Percent Siglec-7 Surface Expression, DCs [18]: 100% | Percent Siglec-7 Surface Expression, Macrophages [18]: 100% | Percent Siglec-7 Surface Expression, Microglia [18]: 88.8% | Percent Siglec-7 Surface Expression, Monocytes [18]: 96.2% | Percent Siglec-7 Surface Expression, NK cells [18]: 101% | Percent Siglec-7 Surface Expression, U937 cells [18]: 99.3%

mIgG1 isotype control antibody
% Positive [20]: 2.8% | MFI [20]: 83 | % Positive [21]: 21.7% | MFI [21]: 368 | Percent RBC Binding to Siglec-7 [22]: 107% | % Positive [23]: 10.6% | MFI [23]: 115 | Percent Siglec-7 Surface Expression, DCs [18]: 101% | Percent Siglec-7 Surface Expression, Macrophages [18]: 100% | Percent Siglec-7 Surface Expression, Microglia [18]: 88.7% | Percent Siglec-7 Surface Expression, Monocytes [18]: 96.2% | Percent Siglec-7 Surface Expression, NK cells [18]: 99.6% | Percent Siglec-7 Surface Expression, U937 cells [18]: 102%

S7.7 MAb (antibody)
Binding Reactivity (% WT) [1]: 115 % WT | Binding Reactivity (% WT) [2]: 106 % WT | Binding Reactivity (% WT) [3]: 129 % WT | Binding Reactivity (% WT) [4]: 5.6 % WT | Binding Reactivity (% WT) [5]: 142 % WT | Binding Reactivity (% WT) [6]: 158 % WT | Binding Reactivity (% WT) [7]: 118 % WT | Binding Reactivity (% WT) [8]: 115 % WT | Binding Reactivity (% WT) [9]: 126 % WT | Binding Reactivity (% WT) [10]: 100 % WT | Binding Reactivity (% WT) [11]: 83.7 % WT | Binding Reactivity (% WT) [12]: 101 % WT | Binding Reactivity (% WT) [13]: 74.3 % WT | Binding Reactivity (% WT) [14]: 89.3 % WT
